According to the supplement of paper PMC9170038:

Test system: MS2 coat protein
Assay: apparent KD of MS2 coat protein; designed switch direction (-1 OFF switch, 1 ON switch): 1; higher = weaker reporter binding
Summary of the method: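 The reported apparent KD is a per-design median over clusters, from curve fits of normalised cluster fluorescence. Protein titrations used SNAP-549-labelled MS2 coat protein, doubled from 0.7 or 1.5 nM to 3 µM, in Tris-HCl pH 7.5 buffer with KCl, MgCl2, BSA, DTT, tRNA and Tween-20, with no input, 200 uM small-molecule ligand, or an oligonucleotide input. The RNA switches were transcribed on Illumina chips by stalled E. coli RNA polymerase.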

[1] = input ligand: microRNA oligo, concentration not stated
[2] = Eterna round: R95, input ligand: FMN 200 uM
[3] = Eterna round: R95, input ligand: microRNA oligo, concentration not stated
[4] = Eterna round: R95, input ligand: none

Sequence: GCUAGAAUUAAAGCCAACAUGAGGAUCACCCAUGUAUGUUGGCAGGAUAUCGUUUGCUUUGCAAACGAGAAGGGCCAUACUAGC [JL SSNG3 1.08] (Eterna round: R96, puzzle: Same State NG 3)
- apparent KD of MS2 coat protein (input ligand: FMN 200 uM): 47.7 nM
- apparent KD of MS2 coat protein [1]: 98.1 nM
- apparent KD of MS2 coat protein (input ligand: none): 134 nM

Sequence: UCGGGCGUACUUGCUGACAUGAGGAUCACCCAUGUGAUUGGGAAGGAUAUGGUUCCGUUUCGGUUCCAGAAGGUCCUGGGUGCU [salish99_SSNG3_r04_313] (Eterna round: R96, puzzle: Same State NG 3)
- apparent KD of MS2 coat protein (input ligand: FMN 200 uM): 482 nM
- apparent KD of MS2 coat protein [1]: 459 nM
- apparent KD of MS2 coat protein (input ligand: none): 370 nM

Sequence: ACAAGCUUUUUAGGAGAGAAAGGUGGGAAACAUGAGGAUCACCCAUGUAUGGUAGUGAAUAGUGGAACUCGUCUUAU [JR_SHM208A_Sub081] (puzzle: Sensor for hsa-mir-208a)
- apparent KD of MS2 coat protein [2]: 400 nM
- apparent KD of MS2 coat protein [3]: 104 nM
- apparent KD of MS2 coat protein [4]: 462 nM

Sequence: AGCGGAUAACAGUAGGAUAUGGCCAACGCCACAUGAGGAUCACCCAUGUCGUACCGGCACCUGGACUAGAAGGACUGCCUCCCGC [Ariscedi] (puzzle: Same State 2)
- apparent KD of MS2 coat protein [3]: 22.8 nM

Sequence: AGCCGAGACACAGGAUAUAGAUGUUUACAUGAGGAUCACCCAUGUAGCAACACGUGGUAGUGAUUCUAGAAGGGUGCUCGGCGC [Omei SS(NG)2 Cv11] (Eterna round: R96, puzzle: Same State NG 2)
- apparent KD of MS2 coat protein (input ligand: FMN 200 uM): 36.3 nM
- apparent KD of MS2 coat protein [1]: 116 nM
- apparent KD of MS2 coat protein (input ligand: none): 167 nM

Sequence: AUACUCAUGUAAGGAUAUGCAGCCGUUUCGGCUGCAGAAGGUACUAUAAUACAUGAGGAUCACCCAUGUCUCUAUUAUUUAGUU [JL SSNG1 1.46] (Eterna round: R96, puzzle: Same State NG 1)
- apparent KD of MS2 coat protein (input ligand: FMN 200 uM): 72.1 nM
- apparent KD of MS2 coat protein [1]: 46.6 nM
- apparent KD of MS2 coat protein (input ligand: none): 55.1 nM

Sequence: GCGAGCGUACUUGCAACAUGAGGAUCACCCAUGUUAACUGGACAGGAUAUGGUACCGUUUCGGUACCAGAAGGGUUUAUCAUGU [JL SSNG3 3.66] (Eterna round: R96, puzzle: Same State NG 3)
- apparent KD of MS2 coat protein (input ligand: FMN 200 uM): 92.3 nM
- apparent KD of MS2 coat protein [1]: 92.8 nM
- apparent KD of MS2 coat protein (input ligand: none): 116 nM

Sequence: GCUCGAAUCAGAACCAACAUGAGGAUCACCCAUGUGUGUUGGUAGGAUAUCGUUUCUAAGGGAAACGAGAAGGGCCGAACGAGC [SameState NG3 #7] (Eterna round: R96, puzzle: Same State NG 3)
- apparent KD of MS2 coat protein (input ligand: FMN 200 uM): 46.9 nM
- apparent KD of MS2 coat protein [1]: 49.4 nM
- apparent KD of MS2 coat protein (input ligand: none): 89.1 nM

Sequence: ACAUGAGACUUAGGAUAUGUUGUACCUACAUGUGACAUGAGGAUCACCCAUGUGGUAAGUAUGAGACAGAAGGAAGAGAUAUGU [Equivalence 29 - Jieux - Same State NG 2] (Eterna round: R96, puzzle: Same State NG 2)
- apparent KD of MS2 coat protein (input ligand: FMN 200 uM): 7.53 nM
- apparent KD of MS2 coat protein [1]: 26.3 nM
- apparent KD of MS2 coat protein (input ligand: none): 54.7 nM

Sequence: GGUCCAGCCUGAGCUGGACAAAAGCAUGUACAUGAGGAUCACCCAUGUCAUGUACAAGCUUUUUGCUCGUCAGAAAG [Mat - hsa-mir-208a - 98] (puzzle: Sensor for hsa-mir-208a)
- apparent KD of MS2 coat protein [2]: 62.7 nM
- apparent KD of MS2 coat protein [3]: 16.9 nM
- apparent KD of MS2 coat protein [4]: 89.8 nM

Sequence: UUGAAUAAUUAAGGAUAUCGAGUCAAGAUGUUAAACAUGAGGAUCACCCAUGUGGGUUGCGGUAUCGAGAAGGUAAAUAAUAAG [Mat - Same State NG 2 - JL mod - D56] (Eterna round: R96, puzzle: Same State NG 2)
- apparent KD of MS2 coat protein (input ligand: FMN 200 uM): 38.6 nM
- apparent KD of MS2 coat protein [1]: 28.8 nM
- apparent KD of MS2 coat protein (input ligand: none): 36.5 nM

Sequence: GCGAGCGUACUUGCUACAUGAGGAUCACCCAUGUUUCAUGGACAGGAUAUGGUACCGUUUCGGUACCAGAAGGGUUCACAUGUG [JL SSNG3 3.81] (Eterna round: R96, puzzle: Same State NG 3)
- apparent KD of MS2 coat protein (input ligand: FMN 200 uM): 88.7 nM
- apparent KD of MS2 coat protein [1]: 68 nM
- apparent KD of MS2 coat protein (input ligand: none): 92.1 nM

Sequence: GCUCGAUGAGCUGUCUACAUGAGGAUCACCCAUGUAGAUGCGGAGGAUAUUUACGUGCUUUAUGUAGAGAAGGCCGUAUCGAGC [SameState NG3 #79] (Eterna round: R96, puzzle: Same State NG 3)
- apparent KD of MS2 coat protein (input ligand: FMN 200 uM): 12 nM
- apparent KD of MS2 coat protein [1]: 15.6 nM
- apparent KD of MS2 coat protein (input ligand: none): 17.9 nM

Sequence: UGUUGUAUUACAGGAUAUCUAUUAUUUUUAGUUAGAGAAGGGUAUUCACAUGAGGAUCACCCAUGUAUAUACGAGGAAGUUGUG [JMF's solution 26] (Eterna round: R96, puzzle: Same State NG 1)
- apparent KD of MS2 coat protein [1]: 35.7 nM

Sequence: ACUCAGUACAAUUUAGAUCUACAUGAGGAUCACCCAUGUACUGAGGAUAUCAGCUCGUUUAGAGCUGAGAAGGCAGUUGUACUA [SSNG3/10-A3] (Eterna round: R96, puzzle: Same State NG 3)
- apparent KD of MS2 coat protein (input ligand: FMN 200 uM): 108 nM
- apparent KD of MS2 coat protein [1]: 221 nM
- apparent KD of MS2 coat protein (input ligand: none): 311 nM

Sequence: GGUUUAGUCGAGUACCGUUCCACUCGAAAACAUGAGGAUCACCCAUGUUUGGGACAAGCUUUGCUCCUCGUCUUUCC [Inardiza] (puzzle: Sensor for hsa-mir-208a)
- apparent KD of MS2 coat protein [2]: 29.6 nM
- apparent KD of MS2 coat protein [3]: 64.8 nM
- apparent KD of MS2 coat protein [4]: 36.6 nM

Sequence: UAACAGUACAAUUUAGAUCUACAUGAGGAUCACCCAUGUACUGAGGAUAUCAGCUCGAUUAGAGCUGAGAAGGCAGAAGAACUA [SSNG3/11-A2] (Eterna round: R96, puzzle: Same State NG 3)
- apparent KD of MS2 coat protein (input ligand: FMN 200 uM): 48.5 nM
- apparent KD of MS2 coat protein [1]: 173 nM
- apparent KD of MS2 coat protein (input ligand: none): 344 nM

Sequence: CUGAGCAAUCAAGGAUAUCACGUCGAUUAGACGUGAGAAGGUGAUCAUUACAUGAGGAUCACCCAUGUGUUACAUGGAGCUCAG [Brourd's SSNG1/1-A2 mod 3] (Eterna round: R96, puzzle: Same State NG 1)
- apparent KD of MS2 coat protein (input ligand: FMN 200 uM): 395 nM
- apparent KD of MS2 coat protein [1]: 54.9 nM
- apparent KD of MS2 coat protein (input ligand: none): 159 nM

Sequence: GCGGCGGCACGGCAGGAUAUGAUAAAACCUACAUGAGGAUCACCCAUGUCGGCGGGUUGCAAAAUUCAGAAGGGCCCUGUAGGCC [Leorzaonis] (puzzle: Same State 2)
- apparent KD of MS2 coat protein [2]: 16.6 nM
- apparent KD of MS2 coat protein [3]: 34.6 nM
- apparent KD of MS2 coat protein [4]: 38.6 nM

Sequence: AACCUACAUGAGGAUCACCCAUGUAUCUGAGGCACAGGAUAUCGACAGGCAAGACACCUGCGAGAAGGGUGACCUC [Same State 1 - Mod of Vinnie Diatater v.2] (puzzle: Same State 1)
- apparent KD of MS2 coat protein [3]: 53.6 nM

Sequence: UUCUCUUUUUAGAGACAAGCUUUUUGAUCACAUGAGGAUCACCCAUGUCUCGUCUUAUGAUUUACUUCGUUAUUUCU [BA Sensor hsa-mir-208a - 2 - 6] (puzzle: Sensor for hsa-mir-208a)
- apparent KD of MS2 coat protein [2]: 160 nM
- apparent KD of MS2 coat protein [3]: 15.6 nM
- apparent KD of MS2 coat protein [4]: 125 nM

Sequence: CGUCCAGCCUGAGCUGGACAAAAGCAUGUACAUGAGGAUCACCCAUGUUCAUGUACAAGCUUUUUGCUCGUCUUAGU [salish99_208a_r3_073] (puzzle: Sensor for hsa-mir-208a)
- apparent KD of MS2 coat protein [2]: 557 nM
- apparent KD of MS2 coat protein [3]: 14.5 nM
- apparent KD of MS2 coat protein [4]: 646 nM

Sequence: CUCAAAACAAGUUGCAGUGUUCGUCUUUAACAUGAGGAUCACCCAUGUAAUAGCCCAGUAGAAGCGCUCGGGCCACC [Ceedbeen] (puzzle: Sensor for hsa-mir-208a)
- apparent KD of MS2 coat protein [2]: 34.5 nM
- apparent KD of MS2 coat protein [3]: 26.4 nM
- apparent KD of MS2 coat protein [4]: 31.9 nM

Sequence: CAGUGCUGUCGAGAGGAUAUGCGGUGAUGGACAUGAGGAUCACCCAUGUUAGCGACAGCGUCACGGCAGAAGGCUCUACCCACUG [Soteed Omei mod 46] (puzzle: Same State 2)
- apparent KD of MS2 coat protein [2]: 11.7 nM
- apparent KD of MS2 coat protein [3]: 15.3 nM
- apparent KD of MS2 coat protein [4]: 18.2 nM

Sequence: GGAAGGAGGUCAGGAUAUGAAUGGAAAGUACAUGAGGAUCACCCAUGUUAUGGAGGAAGGAAACGUUAGAAGGGAUAAGGAAGG [AK SSNG2-V2-2] (Eterna round: R96, puzzle: Same State NG 2)
- apparent KD of MS2 coat protein (input ligand: FMN 200 uM): 32 nM
- apparent KD of MS2 coat protein [1]: 26.8 nM
- apparent KD of MS2 coat protein (input ligand: none): 41.5 nM

Sequence: GAGGGAUGAGCGUAGGAUAUAGGAGAAGUGACAUGAGGAUCACCCAUGUAGGAGGAGGGAUGAGACUAGAAGGACGAGGUAGGAG [JR_SS2_Sub061] (puzzle: Same State 2)
- apparent KD of MS2 coat protein [2]: 37.5 nM
- apparent KD of MS2 coat protein [3]: 54.7 nM
- apparent KD of MS2 coat protein [4]: 67.9 nM

Sequence: UUAAUAAUGUAAGGAUAUACAUGAGGAUUUCUCGUAGAAGGUACAGGACAUGAGGAUCACCCAUGUAUCGCUCCGUAGAGCGUA [Mat - Same State NG 1 - JL mod - D23] (Eterna round: R96, puzzle: Same State NG 1)
- apparent KD of MS2 coat protein (input ligand: FMN 200 uM): 601 nM
- apparent KD of MS2 coat protein [1]: 228 nM
- apparent KD of MS2 coat protein (input ligand: none): 299 nM

Sequence: GCGCAGCUGGGUGAGGAUAUCGGUGGUAAAACAUGAGGAUCACCCAUGUCCGAAGCUCGGACUUCCGAGAAGGCGCCCGGCUGCA [Ridigea] (puzzle: Same State 2)
- apparent KD of MS2 coat protein [2]: 13 nM
- apparent KD of MS2 coat protein [3]: 72.3 nM
- apparent KD of MS2 coat protein [4]: 115 nM

Sequence: UUAAAACAUGAGGAUCACCCAUGUCAACAAAGUCGAGGAUAUGGGCAAUUAUUAUUAGAACCAGAAGGCGAAUAUU [Mat - Same State 1 - Mod of UCT - D28] (puzzle: Same State 1)
- apparent KD of MS2 coat protein [2]: 27.1 nM
- apparent KD of MS2 coat protein [3]: 260 nM
- apparent KD of MS2 coat protein [4]: 289 nM

Sequence: GCGAGCGUACUUGCUACAUGAGGAUCACCCAUGUUUUAUGGACAGGAUAUGGUACCGUUUCGGUACCAGAAGGGUUCACAUGUA [JL SSNG3 3.83] (Eterna round: R96, puzzle: Same State NG 3)
- apparent KD of MS2 coat protein (input ligand: FMN 200 uM): 116 nM
- apparent KD of MS2 coat protein [1]: 150 nM
- apparent KD of MS2 coat protein (input ligand: none): 426 nM

Sequence: AAUUAACAUGAGGAUCACCCAUGUCGUAUUAUGGGAGGAUAUACGUGGACCGUAGUCCGCGUAGAAGGCCUAAUUA [Mat - Same State 1 - Mod of JL - D21] (Eterna round: R96, puzzle: Same State 1)
- apparent KD of MS2 coat protein (input ligand: FMN 200 uM): 21 nM
- apparent KD of MS2 coat protein [1]: 34.5 nM
- apparent KD of MS2 coat protein (input ligand: none): 38.2 nM
